Laboratory results taken from paper PMC9477280 (PLoS Pathogens, 2022).

How the values were obtained:
[1] = molecular target: T1, MC1061 expressing EHEC intimin (Escherichia coli O157:H7 EDL933 (EHEC), UniProt P43261); experiment: ELISA; dilution ELISA with intimin displayed on the surface of E. coli MC1061 as antigen; soluble thioredoxin/VHH/E-tag; EC50 estimates (apparent affinity); conditions: one partner purified
T1 construct: also called E. coli 1061/pInt (EHEC); EHEC intimin expressed on the surface of strain MC1061

[2] = molecular target: T2, MC1061 /EPEC intimin (Escherichia coli O127:H6, JPN15 …, UniProt P19809); experiment: as above; conditions: one partner purified
T2 construct: also called E. coli 1061/pInt (EPEC); EPEC intimin expressed on the surface of strain MC1061

[3] = molecular target: T3, EHEC intimin (Escherichia coli O157:H7 EDL933 (EHEC), UniProt P43261); experiment: ELISA; dilution ELISA; purified antigen coated directly on Nunc Maxisorp wells, typically 1 μg/mL in PBS overnight at 4°C, blocked with 4% milk in PBS 0.1% Tween; thioredoxin/VHH/E-tag from 125 nM in 1:5 serial dilutions, 1 h 37°C; detected with HRP anti-E-tag; EC50 estimates (apparent affinity); Trace = EC50 >125 nM, poor but detectable; conditions: both partners purified
T3 construct: also called recombinant intimin (EHEC)

[4] = molecular target: EPEC flagella (Escherichia coli O127:H6 E2348/69 (EPEC), UniProt B7USU2); experiment: as above; conditions: both partners purified
[5] = molecular target: T4, EPEC FliC (Escherichia coli EPEC, likely O127:H6 …, UniProt B7USU2); experiment: as above; conditions: both partners purified
T4 construct: also called EPEC rFliC; recombinant FliC

[6] = molecular target: C. rodentium intimin (Citrobacter rodentium DBS100, UniProt Q07591); experiment: ELISA; EC50 told in footnote g of Table 1; form of the C. rodentium intimin antigen not stated
[7] = molecular target: T5, EPEC intimin (Escherichia coli O127:H6 E2348/69 (EPEC), UniProt P19809); experiment: ELISA; dilution ELISA; purified antigen coated directly on Nunc Maxisorp wells, typically 1 μg/mL in PBS overnight at 4°C, blocked with 4% milk in PBS 0.1% Tween; thioredoxin/VHH/E-tag from 125 nM in 1:5 serial dilutions, 1 h 37°C; detected with HRP anti-E-tag; EC50 estimates (apparent affinity); Trace = EC50 >125 nM, poor but detectable; conditions: both partners purified
T5 construct: also called recombinant intimin (EPEC)
T5 sequence (P19809 42-939): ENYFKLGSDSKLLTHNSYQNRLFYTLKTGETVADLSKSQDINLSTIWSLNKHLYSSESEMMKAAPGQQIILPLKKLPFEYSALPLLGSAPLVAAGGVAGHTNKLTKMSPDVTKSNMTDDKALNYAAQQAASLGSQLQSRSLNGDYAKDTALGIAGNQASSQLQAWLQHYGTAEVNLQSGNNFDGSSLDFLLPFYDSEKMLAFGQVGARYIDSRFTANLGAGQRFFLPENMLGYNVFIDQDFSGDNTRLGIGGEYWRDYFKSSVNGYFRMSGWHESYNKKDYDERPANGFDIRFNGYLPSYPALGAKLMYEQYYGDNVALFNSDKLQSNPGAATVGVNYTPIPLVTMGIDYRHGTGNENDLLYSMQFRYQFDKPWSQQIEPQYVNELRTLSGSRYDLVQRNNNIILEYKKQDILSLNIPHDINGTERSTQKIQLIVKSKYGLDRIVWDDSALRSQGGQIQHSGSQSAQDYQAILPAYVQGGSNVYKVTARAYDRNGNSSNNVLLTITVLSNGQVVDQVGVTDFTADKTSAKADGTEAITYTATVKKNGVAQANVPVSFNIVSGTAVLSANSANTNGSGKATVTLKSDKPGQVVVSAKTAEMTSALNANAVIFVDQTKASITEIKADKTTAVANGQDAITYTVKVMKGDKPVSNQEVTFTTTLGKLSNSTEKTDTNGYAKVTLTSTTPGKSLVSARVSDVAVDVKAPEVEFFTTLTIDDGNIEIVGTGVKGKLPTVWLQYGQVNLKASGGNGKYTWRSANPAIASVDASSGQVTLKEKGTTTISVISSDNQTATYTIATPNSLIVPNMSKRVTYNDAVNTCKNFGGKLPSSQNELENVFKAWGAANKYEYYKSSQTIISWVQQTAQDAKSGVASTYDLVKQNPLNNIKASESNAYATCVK

T2 sequence (P19809 42-939): as above
T1 sequence (P43261 40-934): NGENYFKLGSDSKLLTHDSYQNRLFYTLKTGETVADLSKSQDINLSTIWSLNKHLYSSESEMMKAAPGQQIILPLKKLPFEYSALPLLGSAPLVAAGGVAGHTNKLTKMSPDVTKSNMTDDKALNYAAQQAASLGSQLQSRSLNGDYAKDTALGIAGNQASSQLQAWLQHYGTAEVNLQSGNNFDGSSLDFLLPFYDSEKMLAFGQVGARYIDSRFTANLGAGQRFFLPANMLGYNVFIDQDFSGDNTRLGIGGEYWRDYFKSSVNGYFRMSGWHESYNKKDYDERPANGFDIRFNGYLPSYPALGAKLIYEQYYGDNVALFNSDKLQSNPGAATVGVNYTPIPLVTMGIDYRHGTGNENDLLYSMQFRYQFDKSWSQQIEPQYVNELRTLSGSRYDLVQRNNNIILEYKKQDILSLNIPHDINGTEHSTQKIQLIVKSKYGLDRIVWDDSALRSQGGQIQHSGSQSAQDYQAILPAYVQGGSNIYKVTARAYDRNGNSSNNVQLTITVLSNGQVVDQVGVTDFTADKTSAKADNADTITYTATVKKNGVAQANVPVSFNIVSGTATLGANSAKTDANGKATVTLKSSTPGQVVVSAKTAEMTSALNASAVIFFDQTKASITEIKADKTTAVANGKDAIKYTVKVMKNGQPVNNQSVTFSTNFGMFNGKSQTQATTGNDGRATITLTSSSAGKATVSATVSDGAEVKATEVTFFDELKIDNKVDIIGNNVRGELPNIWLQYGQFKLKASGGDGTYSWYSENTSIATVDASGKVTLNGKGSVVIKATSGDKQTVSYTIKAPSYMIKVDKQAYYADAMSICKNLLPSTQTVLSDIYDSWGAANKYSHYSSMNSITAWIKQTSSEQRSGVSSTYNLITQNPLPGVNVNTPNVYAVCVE
T3 sequence (P43261 40-934): as above
Sequence of EPEC flagella (B7USU2 2-548): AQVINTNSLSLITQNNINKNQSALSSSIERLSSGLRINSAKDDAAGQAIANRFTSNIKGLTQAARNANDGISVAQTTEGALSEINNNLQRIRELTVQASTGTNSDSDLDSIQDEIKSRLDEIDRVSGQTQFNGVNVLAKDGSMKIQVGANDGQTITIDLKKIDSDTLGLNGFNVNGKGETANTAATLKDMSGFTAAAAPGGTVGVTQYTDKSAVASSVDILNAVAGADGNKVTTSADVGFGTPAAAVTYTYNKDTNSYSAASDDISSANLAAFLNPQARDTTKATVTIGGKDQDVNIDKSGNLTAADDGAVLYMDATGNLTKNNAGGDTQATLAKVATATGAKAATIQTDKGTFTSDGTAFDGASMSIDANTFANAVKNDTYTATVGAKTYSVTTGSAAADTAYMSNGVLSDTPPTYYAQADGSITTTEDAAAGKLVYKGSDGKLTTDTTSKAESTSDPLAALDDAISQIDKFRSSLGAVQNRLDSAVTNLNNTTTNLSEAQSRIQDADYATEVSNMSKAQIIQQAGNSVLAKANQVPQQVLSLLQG
T4 sequence (B7USU2 2-548): as above

B1: JWU-G8 (VHH)
VHH: SGGGLVQPGGSLRLSCATSGFYFAGYWMHWVRQVPGQGLEWVSGIDLGSTMLNYRDSVKGRFSISRDNAKNTVYLQMHSLKPEDTALYFCARDRRAGATSGGYDPDVRGQGTQVTVSS
notes: also called αInt-17; JWZ-15 (vector name)
With B1 the binding result [1] was “binds”, the EC50 [2] was 0.5 nM and the binding result [3] was “no binding (tested: 125 nM (highest VHH concentration))”.

B2: JXE-B1 (VHH)
VHH: TGGGLVQAGDSLRLSCAASSGRNFSNYATGWFRQAPGKEQEFVASISRSGRSTYYADSAKGRFTISRDNARNTVYLQMNSLKPEDTADYYCAAHETQWPNGLGWVRGFYDLWGQGTQVTVSS
notes: also called JXK-1 (vector name); not shown: thioredoxin, N-terminal, kept; E-tag, C-terminal, kept
B2 showed an EC50 [4] of 0.1 nM.

B3: JWT-C1 (VHH)
VHH: SGGLVQPGGSLRLSCAASGFTLANSAIGWFRQAPGKGREAVSCISTSAGTTNYASSVKGRFTTARDNAKNMAYLQMDNLKSGDTGVYECAAGWSIDCSGYILPAADVWGQGTQVTVSS
notes: also called αInt-13; JWZ-7 (vector name)
Binder B3 has an EC50 [3] of 0.5 nM.

B4: JUV-C4 (VHH)
VHH: TGGGLVQAGGSLTLSCVASGRAVSSFAMGWFRQIPGREQRDFVAFIGDYGLTTYYANSVKGRFTISRSNAENTLYLQMNSLEFEDAAVYFCAARDAYRSGTTNPSAYDYWGQGTQVTVSS
notes: also called αFla-2; JVE-4 (vector name); not shown: thioredoxin, N-terminal, kept; E-tag, C-terminal, kept
Work on B4 yielded an EC50 [4] of 1 nM and an EC50 [5] of 0.3 nM.

B5: JWS-H4 (VHH)
VHH: SGGGLVQAGGSLRLSCTTSASIFSGYRMGWFRQAPGKQREFVASIADGQNTPYADSVMGRFTISRDNAKNTVYLQMSNLKPEDTAIYYCKSWGYTDWGQGTQVTVSS
notes: also called αInt-12; JWZ-5 (vector name)
With B5 the binding result [1] was “binds” and the EC50 [2] was 10 nM.

B6: JXN-E2 (VHH)
VHH: TGGLVPPGGSLQLSCTSSGFFLDYLGVAWFRQAPGNEREGVSCIDYTGDNIAYASSMKGRATISRDKDANTVTLEMNGLKPEDTAVYYCAAHRSATTYADGKYRCPLENEYDYWGQGIQVTVSS
notes: also called JXS-2 (vector name); not shown: thioredoxin, N-terminal, kept; E-tag, C-terminal, kept
In the case of B6, the EC50 [6] is reported as about 0.5 nM, the binding result [2] is reported as “no binding (tested: 125 nM (highest VHH concentration))” and the binding result [3] is reported as “no binding (tested: 125 nM (highest VHH concentration))”. B6: no binding (tested: 125 nM (highest VHH concentration)) [7].

B7: JWU-D8 (VHH)
VHH: TGGGLVQPGGSLRLSCAASGFYFSGYWMHWVRQVQGQGLKWVSGINIDDTKSSYTDSVKGRFTISRDNTKNTLYLQMDSLQPEDTGVYYCARDRRAGQISGGYDPDYRGQGTQVTVSS
notes: also called αInt-14; JWZ-9 (vector name)
With B7 the binding result [1] was “binds” and the EC50 [2] was 0.5 nM.
